From patent US20200206304A1, “METHODS AND COMPOSITIONS FOR EFFICIENT DELIVERY THROUGH MULTIPLE BIO BARRIERS” (Cedars-Sinai Medical Center, priority 2017, published 2020)
Like-named read-outs stand apart in the source and are kept apart here. Square brackets hold non-standard residues; d marks the D form. Ends that are not written are not given here.

Assays:
brain parenchyma = settings: cortex; 0.274 μmol/Kg
Experimental: To determine how nanoconjugate-associated fluorescence relates to the anatomy of the vasculature, the distance of each analyzed ROI was manually measured from the nearest blood vessel wall (using line tool in FIJI). For tumor bearing mice, 5 images per tumor tissue and 5 per brain tissue were analyzed for each mouse. Intensity values were then plotted against the location of the blood vessel wall and summarized in scatterplots (e.g., FIG. 14B).
Drug concentrations are listed with regard to total nanoconjugate content systemically injected. […] Referring to FIG. 14B, fluorescence measurements were obtained from 10 μm^2-sized regions of interest (ROI) that were randomly overlaid on regions devoid of vasculature shown as yellow squares on photograph 1 of FIG. 14A. Intensity measurements and positions were then obtained for each ROI and plotted against the location of the nearest blood vessel wall. FIG. 14C is set of charts: chart 1—Cortex; chart 2—Midbrain and chart 3 Hippocampus, illustrating average nanoconjugate fluorescence in the brain parenchyma measured following injections at four different drug concentrations. In this figure, fluorescence is shown as relative fluorescence, which is the measured nanoconjugate fluorescence after subtraction of autofluorescence imaged from PBS injected animals using similar acquisition settings.
FIG. 14B explores this relationship in a plot from all of the measurements (for each condition: 4 mice, 3-4 sections with 20 random measurements each). All fluorescence intensity measurements were conducted with 10 μm^2-sized regions of interest placed outside of tomato-lectin stained blood vessels (ROI as in Photograph 1 of FIG. 14A); the positions of these ROIs were then measured against the location of the nearest blood vessel wall to produce the scatterplot in FIG. 14B.
The resulting data were used as a metric to examine how well the mini nanodrug was able to travel from the vessels into the surrounding parenchyma and encounter brain cells. […] Nanoconjugate diffused fluorescence intensity vs. ‘distance from vasculature’ measurements in brain parenchyma of mice injected with nanoconjugates at a dose of 0.274 μmol/Kg. Fluorescence measurements were obtained from […] regions of interest (ROI) that were randomly overlaid on regions devoid of vasculature (shown by yellow squares in FIG. 22A). Intensity measurements and positions were then obtained for each ROI and plotted against the location of the nearest blood vessel wall.

brain cells = settings: 0.274 μmol/kg
Experimental: For the particulate fluorescence analysis, images were converted to binary images, and then 5 ROIs 20*20 μm^2 were drawn per image. The area of each particle on the ROI was measured using the Image) particle analysis tool, where each particle was measured separately. Sizes were then summarized, sorted, and further analyzed using Minitab18 software (Minitab, Inc, State College, Pa., USA). Particulate areas observed between different conditions were compared via a one-way ANOVA combined with post-hoc Tukey tests to test differences between each experimental group.
A more reliable method to separate the particulate from the cellular fluorescence was reasoned to be by adjusting the levels of the image and converting it to a binary image, allowing the detection of only particulates eliminating interference of the diffused background. FIGS. 29A-29D illustrate intracellular fluorescence of mini nanodrugs.
Each ROI was converted to binary (black and white) image and the area and number of particles were quantified. 3 images per brain area were tested for 3 mice per group.
The particle content (example of ROI in FIG. 29A) then was measured. The average size of the particulate fluorescence is a proxy to estimate the intracellular load of fluorescent nanoconjugates following their injections. An example of such an analysis is shown in FIG. 29A: the yellow squares indicate regions of interest that were used to quantify particulate fluorescence. FIGS. 29B-29C summarize the average size of the intracellular fluorescence particles in the cortex ([…]), midbrain (FIG. 29C), and the hippocampus (FIG. 29C).

neurons and astroglia = settings: for % of positive cells, Cortex astroglia: astroglia (GFAP); for % of positive cells, Cortex neurons: neurons (Neun)
Experimental: Neuronal and glial counterstaining: In FIGS. 27A-27C, brain tissue from drug-injected mice was counterstained to determine if our nanoconjugates are taken up by neurons or glia. Cryosections ([…]) were air-dried for 10 min, fixed with 2% paraformaldehyde for 5 min, and then rinsed three times with PBS. […] The antibodies anti-Neun (Abcam, Cambridge, Mass., USA; AB104225) and anti-GFAP (Neuromics, Edina, Minn., USA; C1122102) were then diluted 1:500 in PBS-T and tissue sections incubated simultaneously with antibody solutions overnight at 4° C. in a humid chamber. Tissue sections were then washed five times with PBS-T and incubated in appropriate secondary antibody diluted 1:250 in PBS-T, for 2-4 h. After five washes in PBS at room temperature, sections were mounted between coverslips in Fluoromount-G with DAPI.
To this end, after systemic injection of our D-conjugates we counterstained brain tissue sections of hippocampus and cortex with anti-Neun to label neurons, and with anti-GFAP to label astroglia (FIGS. 27A-27C) and inspected the stained sections for red fluorescent particulates. […] Positive neurons and glia cells were counted after systemic injection of conjugates containing D1, D3, AC189 peptides, and of a control PBS (FIGS. 27A-27C).

Aβ plaque = biological target: T1, Aβ plaque (Homo sapiens, UniProt P05067); experiment: Percentage of total plaques labeled by mini nanodrugs in AD mice; assay type: in vivo,  (B6.Cg-Tg (APPswe/PS1ΔE9) 85Dbo/J hemizygous) mice
T1 construct: tissue Jackson Laboratories; host or cells: brain of 6-8 month old APPswe/PS1ΔE9 transgenic mice, plaques labelled in vivo after iv injection and counterstained on sections
Experimental: Slides were air dries and fixed using freshly diluted 2% PFA for 5 minutes. The PFA was washed 3 timed with PBS, and brains were covered with 70% EtOH for 5 minutes before washing with dH2O for 2 minutes. 1× Amylo-Glo (Biosenses, #TR-300-AG 100×, diluted with PBS) was then added for 10 minutes. The slides were then washed with PBS (5 minutes) and dH2O (15 seconds) and mounted (Fluoromount-G, No DAPI, Invitrogen), and stored at 4° C. prior to imaging.
Brains were collected and preserved in OTC for immunostaining.

neurons = settings: 0.274 μmol/Kg, vs PBS
glioblastoma GL261 = settings: mouse, in vivo
Brain (other hemisphere) = settings: 2 h, PBS background subtracted
amyloid β (Aβ) plaques = amyloid β (Aβ) plaques (UniProt P05067); experiment: in vivo labelling of Aβ plaques after i.v. injection of rhodamine-labelled conjugate into APPswe/PS1ΔE9 AD mice, dose 8X; fluorescence microscopy of brain sections
[1] = Zeta potential measurements (Zetasizer Nano ZS90); assay type: physicochemical; settings: in PBS; voltage 150 mV
Experimental: Zeta Potential Measurements: Synthesized conjugates were characterized with respect to their ζ potential using a Zetasizer Nano ZS90 (Malvern Instruments, Malvern, UK). Ten microliter aliquots of nanoconjugate samples were diluted in 0.99 mL PBS, and the voltage applied was 150 mV. Data represent the mean of three measurements±their standard deviation.

[2] = test system: blood-brain barrier (BBB); settings: transgenic mice vs normal mice, doses 2×-8×
Experimental: AD-Mouse models: 6-8 month old […] (B6.Cg-Tg (APPswe/PS1ΔE9) 85Dbo/J hemizygous) mice were obtained from Jackson Laboratories. Mouse maintenance and experimental procedures followed the guidelines established by the Cedars Sinai Institutional Animal Care and Use Committee (IACUC Protocol #7416). Three to four mice of each sex were used for each experiment. Nanoconjugates were dissolved freshly in PBS (pH 7.4) prior to each experiment and injected intravenously (i.v.) into the lateral tail vein. […] Mice were anesthetized with isoflurane beforehand and their tails were briefly warmed to facilitate injections. The drug injection volume was kept constant at 150 μL. After each injection, mice were promptly returned to their cages. Brains were collected and preserved in OTC for immunostaining.
The brains were harvested and a 14 μm thick slices which were fixed and stained with DAPI to envision the nuclei
A comparison with normal brain was beneficial for understanding of the development of Alzheimer's disease.

[3] = biological target: low density lipoprotein receptor-related protein-1 (LRP-1) (mouse (endogenous receptor of the injected BALB/C mice)) (UniProt Q91ZX7); experiment: cell-based or functional assay
[4] = injected dose 8X (0.55 μmol/Kg)

T1 sequence (P05067 672-713 limits assumed): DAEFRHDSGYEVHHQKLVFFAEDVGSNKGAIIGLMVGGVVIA
amyloid β (Aβ) plaques, sequence (P05067 672-713): as the sequence (P05067 672-713 limits assumed) above
low density lipoprotein receptor-related protein-1 (LRP-1) (mouse (endogenous receptor of the injected BALB/C mice)), sequence (Q91ZX7 20-4545): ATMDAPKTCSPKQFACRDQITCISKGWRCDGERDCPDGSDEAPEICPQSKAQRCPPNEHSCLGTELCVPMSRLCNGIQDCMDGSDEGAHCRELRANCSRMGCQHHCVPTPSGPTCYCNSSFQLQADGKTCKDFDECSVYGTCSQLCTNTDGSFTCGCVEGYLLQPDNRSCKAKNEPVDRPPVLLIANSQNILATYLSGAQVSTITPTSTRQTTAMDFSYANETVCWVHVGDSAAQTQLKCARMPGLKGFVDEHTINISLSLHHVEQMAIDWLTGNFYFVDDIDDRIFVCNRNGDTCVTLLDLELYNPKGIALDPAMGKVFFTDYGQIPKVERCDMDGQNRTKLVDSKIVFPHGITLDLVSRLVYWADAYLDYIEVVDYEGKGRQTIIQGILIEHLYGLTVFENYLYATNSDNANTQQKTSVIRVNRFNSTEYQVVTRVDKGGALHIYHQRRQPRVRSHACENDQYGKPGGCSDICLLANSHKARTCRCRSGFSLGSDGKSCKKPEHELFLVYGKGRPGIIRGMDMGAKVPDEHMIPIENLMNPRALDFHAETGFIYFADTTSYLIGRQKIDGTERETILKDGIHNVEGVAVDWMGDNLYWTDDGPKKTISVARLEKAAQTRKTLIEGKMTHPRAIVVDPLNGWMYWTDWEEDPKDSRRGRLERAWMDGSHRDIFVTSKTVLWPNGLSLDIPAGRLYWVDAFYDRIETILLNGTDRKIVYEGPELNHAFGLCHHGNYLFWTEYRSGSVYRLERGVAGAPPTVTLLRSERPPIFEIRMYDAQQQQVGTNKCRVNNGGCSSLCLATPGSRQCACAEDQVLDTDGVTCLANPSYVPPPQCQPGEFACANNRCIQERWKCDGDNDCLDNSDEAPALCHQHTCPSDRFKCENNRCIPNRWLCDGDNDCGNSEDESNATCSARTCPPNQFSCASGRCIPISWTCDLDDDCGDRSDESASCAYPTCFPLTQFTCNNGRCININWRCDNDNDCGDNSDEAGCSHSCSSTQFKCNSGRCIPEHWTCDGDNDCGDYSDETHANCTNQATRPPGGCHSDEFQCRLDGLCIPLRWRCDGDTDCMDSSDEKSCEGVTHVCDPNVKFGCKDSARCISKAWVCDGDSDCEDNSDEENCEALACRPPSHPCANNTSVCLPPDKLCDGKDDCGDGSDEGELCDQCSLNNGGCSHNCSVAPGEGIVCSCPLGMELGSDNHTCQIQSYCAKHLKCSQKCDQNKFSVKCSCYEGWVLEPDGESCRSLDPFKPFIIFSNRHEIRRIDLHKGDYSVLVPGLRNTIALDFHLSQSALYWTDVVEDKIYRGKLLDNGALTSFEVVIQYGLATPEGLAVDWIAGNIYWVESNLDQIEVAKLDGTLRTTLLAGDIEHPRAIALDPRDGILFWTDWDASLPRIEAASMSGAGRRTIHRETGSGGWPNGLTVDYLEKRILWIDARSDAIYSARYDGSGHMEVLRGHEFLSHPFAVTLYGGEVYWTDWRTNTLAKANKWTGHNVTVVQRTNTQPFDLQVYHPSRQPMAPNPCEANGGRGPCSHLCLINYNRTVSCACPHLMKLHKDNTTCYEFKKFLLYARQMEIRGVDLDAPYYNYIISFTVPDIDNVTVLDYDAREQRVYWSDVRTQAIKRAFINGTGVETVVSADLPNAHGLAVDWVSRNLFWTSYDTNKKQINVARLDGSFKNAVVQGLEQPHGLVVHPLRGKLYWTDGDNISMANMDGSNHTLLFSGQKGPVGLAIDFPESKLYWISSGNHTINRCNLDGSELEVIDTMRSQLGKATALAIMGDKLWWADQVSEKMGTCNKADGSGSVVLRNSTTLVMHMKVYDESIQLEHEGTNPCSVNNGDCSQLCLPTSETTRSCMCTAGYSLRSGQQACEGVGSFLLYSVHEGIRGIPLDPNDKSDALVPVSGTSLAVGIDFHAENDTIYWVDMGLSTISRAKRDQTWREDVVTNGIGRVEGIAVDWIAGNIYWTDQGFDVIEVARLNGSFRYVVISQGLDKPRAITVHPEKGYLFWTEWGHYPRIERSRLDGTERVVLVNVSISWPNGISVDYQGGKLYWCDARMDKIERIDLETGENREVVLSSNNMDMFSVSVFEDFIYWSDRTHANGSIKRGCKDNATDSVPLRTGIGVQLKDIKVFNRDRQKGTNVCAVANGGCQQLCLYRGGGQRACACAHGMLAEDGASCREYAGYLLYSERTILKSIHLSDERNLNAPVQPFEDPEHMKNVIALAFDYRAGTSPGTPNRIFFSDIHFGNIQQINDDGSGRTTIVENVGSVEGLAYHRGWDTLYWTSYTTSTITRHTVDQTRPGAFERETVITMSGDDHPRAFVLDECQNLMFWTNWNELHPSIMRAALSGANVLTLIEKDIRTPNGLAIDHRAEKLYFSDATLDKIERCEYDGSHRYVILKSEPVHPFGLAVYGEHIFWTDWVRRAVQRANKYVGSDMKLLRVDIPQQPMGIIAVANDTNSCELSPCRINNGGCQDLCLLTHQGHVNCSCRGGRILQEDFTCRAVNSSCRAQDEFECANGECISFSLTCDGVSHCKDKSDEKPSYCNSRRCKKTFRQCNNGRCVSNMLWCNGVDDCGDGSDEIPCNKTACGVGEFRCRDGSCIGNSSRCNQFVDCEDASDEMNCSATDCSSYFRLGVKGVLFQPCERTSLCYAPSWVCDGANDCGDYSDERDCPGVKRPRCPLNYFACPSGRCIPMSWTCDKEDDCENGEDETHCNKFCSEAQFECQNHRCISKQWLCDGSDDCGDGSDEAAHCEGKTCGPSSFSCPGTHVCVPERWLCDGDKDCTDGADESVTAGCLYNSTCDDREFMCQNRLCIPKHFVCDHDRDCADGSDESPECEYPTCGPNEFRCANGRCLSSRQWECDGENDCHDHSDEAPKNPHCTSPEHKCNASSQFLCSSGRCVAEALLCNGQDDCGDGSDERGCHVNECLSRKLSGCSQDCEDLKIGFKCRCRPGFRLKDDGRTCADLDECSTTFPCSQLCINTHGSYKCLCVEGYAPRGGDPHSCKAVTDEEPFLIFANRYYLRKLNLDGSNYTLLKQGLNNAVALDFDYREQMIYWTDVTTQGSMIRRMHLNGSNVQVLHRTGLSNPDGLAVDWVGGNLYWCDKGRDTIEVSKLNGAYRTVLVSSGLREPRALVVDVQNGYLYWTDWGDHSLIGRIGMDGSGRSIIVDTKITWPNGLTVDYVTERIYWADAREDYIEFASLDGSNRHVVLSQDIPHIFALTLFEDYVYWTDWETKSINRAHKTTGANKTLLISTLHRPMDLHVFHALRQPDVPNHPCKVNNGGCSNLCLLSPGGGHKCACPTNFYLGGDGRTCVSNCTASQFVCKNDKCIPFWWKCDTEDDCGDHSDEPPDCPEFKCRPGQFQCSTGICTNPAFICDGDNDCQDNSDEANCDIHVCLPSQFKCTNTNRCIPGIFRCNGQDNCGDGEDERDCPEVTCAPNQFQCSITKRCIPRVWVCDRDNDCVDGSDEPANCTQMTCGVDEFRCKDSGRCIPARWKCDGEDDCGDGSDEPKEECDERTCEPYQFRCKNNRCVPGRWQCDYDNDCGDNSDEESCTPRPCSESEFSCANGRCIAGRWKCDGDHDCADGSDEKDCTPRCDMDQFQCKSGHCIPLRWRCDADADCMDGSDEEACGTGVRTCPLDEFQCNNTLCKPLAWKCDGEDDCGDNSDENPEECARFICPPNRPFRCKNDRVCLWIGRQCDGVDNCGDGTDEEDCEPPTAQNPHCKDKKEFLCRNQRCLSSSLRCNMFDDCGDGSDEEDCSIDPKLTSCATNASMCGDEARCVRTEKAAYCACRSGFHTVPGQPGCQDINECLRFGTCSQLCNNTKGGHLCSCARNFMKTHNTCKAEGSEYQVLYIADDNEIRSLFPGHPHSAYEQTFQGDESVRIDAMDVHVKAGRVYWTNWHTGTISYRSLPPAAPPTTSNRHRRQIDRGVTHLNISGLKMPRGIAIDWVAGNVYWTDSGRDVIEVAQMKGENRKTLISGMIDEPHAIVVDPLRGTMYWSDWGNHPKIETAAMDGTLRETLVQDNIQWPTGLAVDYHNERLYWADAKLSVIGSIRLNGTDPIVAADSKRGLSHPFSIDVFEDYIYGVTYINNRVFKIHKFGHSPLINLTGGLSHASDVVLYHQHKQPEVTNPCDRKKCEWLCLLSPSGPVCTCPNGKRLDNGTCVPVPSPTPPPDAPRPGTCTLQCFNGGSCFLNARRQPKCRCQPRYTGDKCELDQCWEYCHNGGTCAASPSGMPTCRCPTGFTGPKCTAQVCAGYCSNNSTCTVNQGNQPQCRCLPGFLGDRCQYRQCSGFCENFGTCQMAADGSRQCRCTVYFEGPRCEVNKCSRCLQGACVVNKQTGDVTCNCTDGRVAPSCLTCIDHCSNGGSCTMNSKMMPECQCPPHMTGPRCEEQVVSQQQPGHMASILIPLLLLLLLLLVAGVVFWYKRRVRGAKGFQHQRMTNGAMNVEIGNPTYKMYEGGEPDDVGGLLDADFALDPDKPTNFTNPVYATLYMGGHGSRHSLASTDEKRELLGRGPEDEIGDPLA

Molecule: PMLA/LLL/D1/rhodamine (peptide 1 QSHYRHISPAQVC; peptide 2 Leu-Leu-Leu; not fully specified) [P/LLL/D1]
- cortex Y intercepts of fluorescence vs distance curves (exponential fits) (brain parenchyma): 21.6
- increase of particle diameter in comparison with PBS (brain cells): 2.5 fold
- #Labeled/#total counted cells, Cortex astroglia (neurons and astroglia): [5/40]
- % of positive cells, Cortex astroglia (neurons and astroglia): 12.5%
- #Labeled/#total counted cells, Cortex neurons (neurons and astroglia): [119/141]
- % of positive cells, Cortex neurons (neurons and astroglia): 84.4%
- #Labeled/#total counted cells, Hippocampus astroglia (neurons and astroglia): [4/57]
- % of positive cells, Hippocampus astroglia (neurons and astroglia): 7.0%
- #Labeled/#total counted cells, Hippocampus neurons (neurons and astroglia): [286/433]
- % of positive cells, Hippocampus neurons (neurons and astroglia): 66.0%
- Percentage of total plaques labeled by the reagents (Aβ plaque; [4]): 0%
- average fluorescence per neuron nucleus (in words) (neurons): significantly higher than for PBS
- Tumor fluorescence (glioblastoma GL261): 86.6
- ratio Tumor/Brain (glioblastoma GL261): 16.4
- Brain (other hemisphere) fluorescence (Brain (other hemisphere); dose 4X): 5.3

Molecule: PMLA/LLL/D3/rhodamine (peptide 1 RPRTRLHTHRNRC; peptide 2 Leu-Leu-Leu; not fully specified (some residues)) [P/LLL/D3]
- cortex Y intercepts of fluorescence vs distance curves (exponential fits) (brain parenchyma): 21.1
- increase of particle diameter in comparison with PBS (brain cells): 2.5 fold
- #Labeled/#total counted cells, Cortex astroglia (neurons and astroglia): [7/46]
- % of positive cells, Cortex astroglia (neurons and astroglia): 15.2%
- #Labeled/#total counted cells, Cortex neurons (neurons and astroglia): [286/300]
- % of positive cells, Cortex neurons (neurons and astroglia): 95.3%
- #Labeled/#total counted cells, Hippocampus astroglia (neurons and astroglia): [14/47]
- % of positive cells, Hippocampus astroglia (neurons and astroglia): 29.8%
- #Labeled/#total counted cells, Hippocampus neurons (neurons and astroglia): [894/967]
- % of positive cells, Hippocampus neurons (neurons and astroglia): 92.45%
- Percentage of total plaques labeled by the reagents (Aβ plaque; injected dose 2X): 0% all in a single box
- Percentage of total plaques labeled by the reagents (Aβ plaque; injected dose 4X): 0%
- Percentage of total plaques labeled by the reagents (Aβ plaque; injected dose 6X): 0%
- Percentage of total plaques labeled by the reagents (Aβ plaque; [4]): 21.1%
- average fluorescence per neuron nucleus (in words) (neurons): significantly higher than for PBS
- Tumor fluorescence (glioblastoma GL261): 92.6
- ratio Tumor/Brain (glioblastoma GL261): 11.9
- Brain (other hemisphere) fluorescence (Brain (other hemisphere); dose 4X): 7.8

Molecule: PMLA/LLL/rhodamine
- Percentage of total plaques labeled by the reagents (amyloid β (Aβ) plaques): 4.5%

Molecule: PMLA/LLL/rhodamine (Leu-Leu-Leu; also: conjugated to PMLA with rhodamine, link not given here) [P/LLL, polymalic acid with tri-leucine (40%) and rhodamine]
- Percentage of total plaques labeled by the reagents (Aβ plaque; [4]): 4.5%

Molecule: PMLA/LLL/AP2/rhodamine
- Percentage of total plaques labeled by the reagents (amyloid β (Aβ) plaques): 1.23%

Molecule: PMLA/LLL/AP2/Miniap4/rhodamine [P/LLL/AP2/M4]
- ζ potential [1]: −5.5 mV

Molecule: PMLA/LLL/M4/rhodamine (peptide 1 KAPETALD; peptide 2 Leu-Leu-Leu; not fully specified) [P/LLL/M4]
- ζ potential [1]: −10.4 mV
- Percentage of total plaques labeled by the reagents (Aβ plaque; [4]): 0%
- Tumor fluorescence (glioblastoma GL261): 86.2
- ratio Tumor/Brain (glioblastoma GL261): 22.8
- Brain (other hemisphere) fluorescence (Brain (other hemisphere); dose 4X): 3.8

Molecule: PMLA/LLL/B6/rhodamine (peptide 1 CGHKAKGPRK; peptide 2 Leu-Leu-Leu; also: conjugated to polymalic acid (PMLA), rhodamine label) [P/LLL/B6]
- ζ potential [1]: −6.1 mV
- BBB permeation efficacy in AD brain (in words) [2]: A decrease was not observed
- Percentage of total plaques labeled by the reagents (Aβ plaque; [4]): 3.3%
- dose-dependent change of tumor fluorescence between 1× and 4× (glioblastoma GL261): 23 fold
- Brain (other hemisphere) fluorescence (Brain (other hemisphere); dose 1X): 1.2
- Brain (other hemisphere) fluorescence (Brain (other hemisphere); dose 4X): 6.8

Molecule: PMLA/LLL/B6/rhodamine
- Percentage of total plaques labeled by the reagents (amyloid β (Aβ) plaques): 3.3%

Molecule: PMLA/M4/rhodamine (KAPETALD; not fully specified) [P/M4]
- ζ potential [1]: −14.6 mV

B1: PMLA/LLL/D1/rhodamine (peptide)
peptide 1: [dQ][dS][dH][dY][dR][dH][dI][dS][dP][dA][dQ][dV]C
peptide 2: Leu-Leu-Leu
modifications: not fully specified (some residues, N-terminus); also: LLL amide-linked to PMLA carboxylates
- P/LLL/D1/rh fluorescence intensity in the brain parenchyma (BBB crossing) on co-injection of a 70-fold molar excess of AP2 [3]: 54.5%
- P/LLL/D1/rh fluorescence intensity in the parenchyma (transcytosis) with 21 µmol/kg free AP2 [3]: 50%
